Where two headings read alike, the source gives them in different places.
Key:
[1] = rat, in vivo; cited from earlier work
Description: Drug administration to the retina and vitreous body is challenging. Drugs applied to the surface of the eye rarely penetrate the ocular surface or enter into the vitreous body and the retina ([Gaudana et al., 2010]). Biological barriers such as the cornea, conjunctiva and the tear film limit penetration and bioavailability of topical drug preparations to the posterior segment of the eye and therefore direct injection of drugs to the vitreous is commonly used to target drugs to the retina ([Ayalasomayajula and Kompella, 2005; Carneiro et al., 2009; Eldaly and Styles, 2009; Yasukawa et al., 2001 ...

RGC axons = details: administration of CNTF after ONC; ref Vigneswara et al., 2013; cited from earlier work
[2] = tested on: βIII-tubulin+ retinal neurons; details: CNTF 440.5 pM, 4 days in culture
Description: For all in vitro experiments, adult 6–8-week-old female Sprague–Dawley rats weighing 170–220 g were used. Culture experiments included retinal cells treated with: (1), Neurobasal-A (NBA) alone (Control); and equimolar concentrations of (2), 2.16; (3) 5.4; (4), 10.8 and (5), 21.6 pM PEDF-34/-44; and (6), ciliary neurotrophic factor (CNTF: Peprotech, London, UK), as a positive control at an optimal neuroprotective/axogenic concentration of 440.5 pM, established by us previously ([Ahmed et al., 2009; Douglas et al., 2009]). […] All experiments were performed in triplicate and repeated on three independent occasions.
Mixed adult rat retinal cultures containing enriched populations of retinal neurons, including RGCs, were prepared from 6–8-week-old adult female Sprague–Dawley rats, as described previously ([Ahmed et al., 2006b, 2009, 2010; Douglas et al., 2009; Vigneswara et al., 2013]). Briefly, retinal cells were dissociated using a Papain dissociation kit according to the manufacturer's instructions (Worthington Biochemicals, Lakewood, NJ, USA). […]
The mean number of βIII-tubulin^+ neurons surviving, with neurites and the mean neurite length were quantified as described by us previously ([Vigneswara et al., 2013, 2014]). Briefly, chamber slides were anonymised by a second investigator and βIII-tubulin^+ neuronal soma and neurites quantified in 9 quadrants/well using Axiovision software (Version 4.8; Zeiss) and ImagePro (Version 6.3; Media Cybernetics, Bethesda, MD, USA). Of the 125,000 cells/well plated, the total numbers of neurons in each experiment were determined by βIII-tubulin^+ immunocytochemistry after allowing 30 min for cells to adhere to glass culture slides. […] Neurite outgrowth from at least 180 neurons/condition from the 9 wells was measured, except in control (NBA) cultures, in which a total of 108 neurons were measured.

[3] = tested on: retinal ganglion cells (RGCs); details: intravitreal delivery at 0, 7 and 14 days after ONC, equimolar concentrations, 21 days after ONC; ref Vigneswara et al., 2013; cited from earlier work
Protocol: Here we wished to confirm that, in vivo, PEDF-34 was more neuroprotective than full length PEDF. After intravitreal injection of vehicle + 0 nM PEDF-34, 295 ± 15 FG^+ RGC/mm^2 survived 21 days after ONC + PBS (0 nM PEDF-34) (Fig. 2A and B). Increasing the dose of ...

RGC = details: intravitreal injections, ref Cheng et al., 2002, Kermer et al., 1998, Kurokawa et al., 1999, Monnier et al., 2011, Parrilla-Reverter et al., 2009, cited from earlier work
Description: Other commonly used retinal neuron/RGC neuroprotective factors include BDNF, glial-derived neurotrophic factor (GDNF), neurotrophin (NT)-3, NT-4/5, as well as caspase inhibitors ([Cheng et al., 2002; Kermer et al., 1998; Kurokawa et al., 1999; Monnier et al., 2011; Parrilla-Reverter et al., 2009]). Although intravitreal injections of BDNF protect 100% of RGC for 7 days, efficiency declines to 60% by 21 days. Most neuroprotective strategies tested support the survival of a maximum of 60% of RGC at 2 weeks after injury ([Cheng et al., 2002; Kermer et al., 1998; Kurokawa et al., 1999; Monnier et ...

^125I-labelled nerve growth factor: 125I-labelled nerve growth factor (26 kDa)
time of peak accumulation in the retina and optic nerve [1]: 6 h

B1: CNTF: ciliary neurotrophic factor (Peprotech), positive control at 440.5 pM (protein, UniProt P26441 1-200, looked up)
Ciliary neurotrophic factor: MAFTEHSPLTPHRRDLCSRSIWLARKIRSDLTALTESYVKHQGLNKNINLDSADGMPVASTDQWSELTEAERLQENLQAYRTFHVLLARLLEDQQVHFTPTEGDFHQAIHTLLLQVAAFAYQIEELMILLEYKIPRNEADGMPINVGDGGLFEKKLWGLKVLQELSQWTVRSIHDLRFISSHQTGIPARGSHYIANNKKM
RGC axon regeneration after ONC (RGC axons): limited RGC axon regeneration | fold increase in βIII-tubulin+ neuron survival compared to untreated cultures [2]: 1.9 fold

B2: full length PEDF: 50 kDa neurotrophic factor, member of the serpin superfamily (protein, UniProt P36955 1-418, looked up)
chain: MQALVLLLCIGALLGHSSCQNPASPPEEGSPDPDSTGALVEEEDPFFKVPVNKLAAAVSNFGYDLYRVRSSTSPTTNVLLSPLSVATALSALSLGAEQRTESIIHRALYYDLISSPDIHGTYKELLDTVTAPQKNLKSASRIVFEKKLRIKSSFVAPLEKSYGTRPRVLTGNPRLDLQEINNWVQAQMKGKLARSTKEIPDEISILLLGVAHFKGQWVTKFDSRKTSLEDFYLDEERTVRVPMMSDPKAVLRYGLDSDLSCKIAQLPLTGSMSIIFFLPLKVTQNLTLIEESLTSEFIHDIDRELKTVQAVLTVPKLKLSYEGEVTKSLQEMKLQSLFDSPDFSKITGKPIKLTQVEHRAGFEWNEDGAGTTPSPGLQPAHLTFPLDYHLNQPFIFVLRDTDTGALLFIGKILDPRGP
modifications: full-length
notes: 50 kDa neurotrophic factor, member of the serpin superfamily
survival of RGCs from death [3]: 55%

B3: BDNF: brain-derived neurotrophic factor (protein, UniProt P23560 19-247, looked up)
Neurotrophic factor BDNF …: APMKEANIRGQGGLAYPGVRTHGTLESVNGPKAGSRGLTSLADTFEHVIEELLDEDQKVRPNEENNKDADLYTSRVMLSSQVPLEPPLLFLLEEYKNYLDAANMSMRVRRHSDPARRGELSVCDSISEWVTAADKKTAVDMSGGTVTVLEKVPVSKGQLKQYFYETKCNPMGYTKEGCRGIDKRHWNSQCRTTQSYVRALTMDSKKRIGWRFIRIDTSCVCTLTIKRGR
RGC protected (RGC; 7 days): 100% | RGC protected (RGC; by 21 days): 60%

Source: PMC4604765, “Eye drop delivery of pigment epithelium-derived factor-34 promotes retinal ganglion cell neuroprotection and axon regeneration” (Molecular and Cellular Neurosciences, 2015)
